From patent publication US20210070819A1 (INSERM INSTITUT NATIONAL DE LA SANT ET DE LA RECHERCHE M …, published 2021) come the findings set out here.

The target of assay [1] is T1, biotin-tagged HLA-A*03:01 monomers (immunAware) (human, biotin tag).
T1 construct: Bought monomers folded around the test peptide; also called HLA-A3; A3
Nature of the assay: flow cytometry bead assay: biotinylated HLA-A*03:01 monomer folded with peptide, captured on streptavidin beads, detected with anti-β2-microglobulin BBM.1; 1.2 nM complex (data not shown).

The next assay addresses T2, HLA-A*02:01 (human).
T2 construct: also called HLA-A2; A2
Nature of the assay: experimental HLA-A2 peptide binding assay, format not described (data not shown).

B1: SCG5-009193-201 (peptide)
peptide: RLKPSLVGK
With B1, the binding result in assay [1] is “binds”.

B2: SCG5-009186-194 (peptide)
peptide: FLSGAVNRL
notes: also called SCG-009186-194
For B2, the binding result in the assay with HLA-A*02:01 is “binds”.

B3: SCG5186-195 (peptide)
peptide: YLQGQRLDNV
As for B3, the binding result with HLA-A*02:01 is “binds”.
